The values below come from paper PMC11623927, “Synthesis and biological assessment of chalcone and pyrazoline derivatives as novel inhibitor for ELF3-MED23 interaction” (eLife, 2024).

Test [1] has as its target T1, MED23 (mediator of RNA polymerase II transcription subunit 23) (Homo sapiens, UniProt Q9ULK4).
T1 construct: (His)6-MED23_391-582; with ELF3 (FITC-labeled ELF3_129-145 peptide)
Put plainly: cell-free fluorescence polarization displacement of FITC-ELF3_[…]-145 from (His)6-MED23_[…]-582. In kind it is binding. For orientation: Fluorescence polarisation rises when a labelled molecule tumbles more slowly, as on binding a larger partner.

For test [2], the target named is T2, (His)6-MED23_(391-582) protein (UniProt Q9ULK4 391-582).
T2 chain: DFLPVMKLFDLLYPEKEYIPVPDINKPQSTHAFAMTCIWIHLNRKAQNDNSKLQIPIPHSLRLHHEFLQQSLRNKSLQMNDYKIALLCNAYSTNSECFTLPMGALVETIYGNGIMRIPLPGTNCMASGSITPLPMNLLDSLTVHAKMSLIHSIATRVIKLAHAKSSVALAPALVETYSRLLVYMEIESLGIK
Description: FP; competition with FITC-ELF3(129-145).

Test [3] addresses T3, (His)6-MED23_(391-582) protein (UniProt Q9ULK4 391-582).
T3 construct: MED23 (mediator of RNA polymerase II transcription subunit 23), residues 391-582
T3 sequence (looked up): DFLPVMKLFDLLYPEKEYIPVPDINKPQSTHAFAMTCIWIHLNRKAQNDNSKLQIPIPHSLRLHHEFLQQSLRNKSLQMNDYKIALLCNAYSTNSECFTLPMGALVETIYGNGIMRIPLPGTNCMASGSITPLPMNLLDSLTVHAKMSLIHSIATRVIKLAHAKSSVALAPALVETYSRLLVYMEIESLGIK
Description: fluorescence polarisation; cell-free displacement; varying concentrations of unlabeled ELF3(137-144) peptide added to 80 nM (His)6-MED23(391-582) and 10 nM FITC-ELF3(129-145); Ki from IC50 by the Cheng-Prusoff equation; n=3. Conditions: both partners purified.

The next test has as its target T4, Cluc-MED23_(391-582) (UniProt Q9ULK4 391-582).
T4 construct: MED23 residues 391-582; also called MED23_(391-582) fragment fused with Cluc; source: HEK293, transfected, in cells
T4 sequence (looked up): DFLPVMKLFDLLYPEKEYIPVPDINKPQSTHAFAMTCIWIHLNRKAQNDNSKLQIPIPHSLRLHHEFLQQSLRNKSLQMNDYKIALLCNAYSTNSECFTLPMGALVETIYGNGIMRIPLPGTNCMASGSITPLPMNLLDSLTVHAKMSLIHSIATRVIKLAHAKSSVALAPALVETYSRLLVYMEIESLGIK
Put plainly: split reporter (BiFC, NanoBiT); split firefly luciferase complementation in HEK293 co-transfected with Nluc-ELF3 and Cluc-MED23(391-582); without compound 10. Conditions: partners not purified.

Test [4] deals with T3, (His)6-MED23_(391-582) protein. Put plainly: fluorescence polarisation; cell-free; different concentrations of (His)6-MED23(391-582) with 10 nM FITC-ELF3(129-145) in assay buffer; least-squares non-linear fit; n=3. Conditions: both partners purified.

Ends that are not written are not given here.

The Ki is a measure of affinity in units of concentration, obtained from inhibition or displacement. Higher therefore signals lower affinity. Consider `COc1ccc(/C=C/C(=O)c2cc(OC)c(OC)c(OC)c2)cc1OCC=C(C)C` [compound 10, (E)–3-(4-Methoxy-3-((3-methylbut-2-en-1-yl)oxy)phenyl)–1-(3,4,5-trimethoxyphenyl) prop-2-en-1-one], for which affinity in test [1] was put at a Ki of 680 ± 80 nM.

B1: unlabeled ELF3_(137-144) peptide (peptide, UniProt P78545 137-144, looked up)
peptide: SWIIELLE
notes: ELF3 residues 137-144 (S137 to E144), within the TAD domain; Positive control of the FP displacement assay
As a reminder, the IC50 is the concentration that gives 50% inhibition. B1: in test [2], the IC50 amounted to 8810 nM. Further, the inhibition constant Ki in test [3] came to 4470 nM.

B2: Nluc-ELF3WT (natural protein, UniProt P78545 1-371, looked up)
chain: MAATCEISNIFSNYFSAMYSSEDSTLASVPPAATFGADDLVLTLSNPQMSLEGTEKASWLGEQPQFWSKTQVLDWISYQVEKNKYDASAIDFSRCDMDGATLCNCALEELRLVFGPLGDQLHAQLRDLTSSSSDELSWIIELLEKDGMAFQEALDPGPFDQGSPFAQELLDDGQQASPYHPGSCGAGAPSPGSSDVSTAGTGASRSSHSSDSGGSDVDLDPTDGKLFPSDGFRDCKKGDPKHGKRKRGRPRKLSKEYWDCLEGKKSKHAPRGTHLWEFIRDILIHPELNEGLMKWENRHEGVFKFLRSEAVAQLWGQKKKNSNMTYEKLSRAMRYYYKREILERVDGRRLVYKFGKNSSGWKEEEVLQSRN
notes: ELF3, full-length cDNA, wild type; source: HEK293, transfected, in cells
For B2, the “fold change of bioluminescence vs. control” value with Cluc-MED23_(391-582) was determined as 32.7 fold. One may read the Kd as the equilibrium constant for the complex coming apart. Low values mean a tighter complex, high ones a looser complex. As to TSSSSDELSWIIELLEK (peptide, UniProt P78545 129-145, looked up, also: FITC label, position not given here, also called ELF3-FITC peptide (17 a.a.)) [fluorescein isothiocyanate (FITC)-labeled ELF3_(129-145) peptide], the dissociation constant Kd in test [4] was determined as 10.2 nM.
